Reference: paper PMC3970736, “Peptide transporter isoforms are discriminated by the fluorophore‐conjugated dipeptides β‐Ala‐ and d‐Ala‐Lys‐N‐7‐amino‐4‐methylcoumarin‐3‐acetic acid” (Physiological Reports, 2013)

Tests used:
Assay in all cases: two-electrode voltage clamp, Xenopus oocytes, Michaelis-Menten fit of transport current
[1] = substrate: NCC(=O)N[C@@H](CCC(N)=O)C(=O)O; assay type: cell-based, Oryctolagus cuniculus; conditions: pH 6.5, -160 mV, apparent transport affinity, GQ Km values 'in part published previously'
Excerpt: (§1) two-electrode voltage clamp, Xenopus oocytes, Michaelis-Menten fit of transport current on rPEPT2

[2] = substrate: Cc1c(CC(=O)NCCCC[C@H](NC(=O)CCN)C(=O)O)c(=O)oc2cc(N)ccc12; assay type: cell-based, Oryctolagus cuniculus; conditions: pH 6.5, -160 mV, 0.05-2 mmol/L range, apparent transport affinity
Excerpt: as §1

[3] = substrate: NCC(=O)N[C@@H](CCC(N)=O)C(=O)O; assay type: cell-based, Danio rerio; conditions: pH 6.5, -160 mV, apparent transport affinity, GQ Km values 'in part published previously'
Excerpt: (§2) two-electrode voltage clamp, Xenopus oocytes, Michaelis-Menten fit of transport current on zfPEPT2

[4] = substrate: Cc1c(CC(=O)NCCCC[C@H](NC(=O)CCN)C(=O)O)c(=O)oc2cc(N)ccc12; assay type: cell-based, Danio rerio; conditions: pH 6.5, -160 mV, 0.05-2 mmol/L range, apparent transport affinity
Excerpt: as §2

[5] = substrate: NCC(=O)N[C@@H](CCC(N)=O)C(=O)O; assay type: cell-based, Caenorhabditis elegans; conditions: pH 6.5, -60 mV, apparent transport affinity, GQ Km values 'in part published previously'
Excerpt: (§3) two-electrode voltage clamp, Xenopus oocytes, Michaelis-Menten fit of transport current on cePEPT1

[6] = substrate: Cc1c(CC(=O)NCCCC[C@H](NC(=O)CCN)C(=O)O)c(=O)oc2cc(N)ccc12; assay type: cell-based, Caenorhabditis elegans; conditions: pH 6.5, -60 mV, 0.5-4 mmol/L range, apparent transport affinity
Excerpt: as §3

B1: rPEPT2 (Oryctolagus cuniculus) (protein)
chain: MNPFQQNESKETLFSPVSTEETPPRLSSPAKKTPPKICGSNYPLSIAFIVVNEFCERFSYYGMKAVLTLYFLYFLHWNEDTSTSVYHAFSSLCYFTPILGAAIADSWLGKFKTIIYLSLVNVLGHVIKSLSAFPILGGKVVHTVLSLVGLCLIALGTGGIKPCVAAFGGDQFEEKHAEERTRYFSGFYLAINAGSLISTFITPMLRGDVQCFGEDCYALAFGVPGLLMVIALVVFAMGSKMYKKPPPEGNIVAQVVKCIWFAISNRFKNRSEDIPKRQHWLDWAAEKYPKQLIMDVKTLTRVLFLYIPLPMFWALLDQQGSRWTLQATKMNGNLGFFVLQPDQMQVLNPLLVLIFIPLFDLVIYRLISKCGINFTSLRKMAVGMVLACLAFAAAATVEIKINEMAPPQPGSQEILLQVLNLADDEVKLTVLGNNNNSLLADSIKSFQKTPHYSKIHLNTKSQDFYFHLKYHNLSIYTEHSVEERNWYSLIIREDGKSISSIMVKDMENETTYGMTAIRFINTLQENVNISLGTDISLNVGENYGVSAYRTVQRGEYPAVHCKTEDKDFSLNLGLLDFGASYLFVITNSTKQGLQAWKMEDIPANKVSIAWQLPQYALVTAGEVMFSVTGLEFSYSQAPSSMKSVLQAAWLLTVAIGNIIVLVVAQFSGLVQWAEFVLFSCLLLVVCLIFSIMGYYYIPIKSEDIQGPEDKQIPHMQGNMINLETKKTKL
notes: full-length (729 residues) cRNA expressed in Xenopus laevis oocytes
[1]
  Km: 150 ± 33 µM
[2]
  Km: 290 ± 27 µM

B2: zfPEPT2 (Danio rerio) (protein)
chain: MGKMKDKDVDAEKYEKAQRSPKLCGTNYPVSIAFIVVNEFCERFSYYGMKAVLTLYFMNYLHWDKNLSTAIYHAFSGLCYFTPLLGALIADSWLGKFKTIIYLSIVYVIGHVVKSVGAIPDVGDSTVHIALSMVGLGLIALGTGGIKPCVAAFGGDQFDEDNIDERRKFFSIFYMSINAGSVLSTIITPILRGDVQCFGGDCYALAFGVPAALMVIALVVFISGSGLYKKSPPEGNVLVRVCKCIGFAISNRWTNSKKSPKRSHWLDWAEEKYSKRLIQEIKMVCRVLVLYIPLPMFWALFDQQGSRWTLQATRMNMDFGGGFIIKPDQMQMLNALLILVFIPIFDMGIYPLVGLCRIKLTPLKKMATGMILAALAFCAATAVEVYVIKTVVEPPPAKESLVQVYNLMDSDVTVQFPAHNVFSEPLKPYEEPSGYSSLPLTGESQLQNVVVSHNGMNYQCRLTFTERMAYSLLLHPTAQHNGSVCNLVKDHITKSETGAAYIRFINTHTENINVTVGTEEVHASANYGISRNISVPRGEYNKAVCVTDTKEYEINLGLLDFGAFYTVILSEAGNNLAVKKMEDIQANNIHIGWQIPQYVFLTAGEVMFSITGLEFSYSQAPASMKSVLQAGWLMTVAFGNVIVLIVAEGAGMEQWVEFLLFAALLVAVSIIFSIMAYFYTYVDPDQLDKLFKEDGDGGKVESSKKDELSLGDMPKQTKM
notes: full-length cRNA expressed in Xenopus laevis oocytes
[3]
  Km: 79 ± 12 µM
[4]
  Km: 296 ± 26 µM

B3: cePEPT1 (Caenorhabditis elegans) (protein)
chain: MGYSESRSESVSSKGKTSYGHELETVPLPEKKIYTTWPDMIRHWPKTTLCIVSNEFCERFSYYGMRTVLTFYLLNVLKFTDSQSTIFFNGFTVLCYTTPLLGSIVADGYIGKFWTIFSVSILYAIGQVVLALASTKNFQSSVHPWMDLSGLLIIAFGTGGIKPCVSAFGGDQFELGQERMLSLFFSMFYFSINAGSMISTFISPIFRSQPCLGQDSCYPMAFGIPAILMIVATLVFMGGSFWYKKNPPKDNVFGEVSRLMFRAVGNKMKSGSTPKEHWLLHYLTTHDCALDAKCLELQAEKRNKNLCQKKKFIDDVRSLLRVLVMFLPVPMFWALYDQQGSVWLIQAIQMDCRLSDTLLLLPDQMQTLNAVLILLFIPLFQVIIYPVAAKCVRLTPLRKMVTGGLLASLAFLITGFVQLQVNTTLPTLPEEGEASISFWNQFETDCTITVMSGIHKRVLPHDKYLHEDKKNKSGIYNLFTTKSPAKGNGDWTLTYDLSYDGACGDTSKLEKTVKVTAKSKKIIYVGVGSFGYYQNTANTDKPTDGTGEFSMGIVTVFNSSYGGNFAMCRQNTSDFDVNHPCNPRHPADFYFWETDYNSHTDDRDQNATITGSLSSQPAVTYKQKSVKPGYWQLYYLLNTPKDVDRQTYNKTATLVAPTNYGFHRVKQGGVFIYALTGTYENPKIHELQIVQSNSVSILWQIPQIVVITAAEILFSITGYEFAYSQSAPSMKALVQALWLLTTAAGDSIIVVITILNLFENMAVEFFVYAAAMFVVIAIFALLSIFYYTYNYYTTDEEDGEIGVDDEEEIEDHNPRYSIDNKGFHPDEKDTFDMHF
notes: as for B2
[5]
  Km: 7450 ± 610 µM
[6]
  Km: 4640 ± 1670 µM
